Data as given in the MegaScale stability set (Tsuboyama et al. 2023).

B1: EHEE_rd3_0053 (parent)
chain: TYTFKVDNKDQAKKAAKWAKKLGLSFQIEKHGDTFKITVQ

Variants of: B1
Experiment: folding stability dG (cDNA display proteolysis); higher = more stable
Conditions: PBS, room temperature

Folding stability dG [kcal/mol] of substitutions, site by site:
W18: Y 1.61; L 1.77; A 1.21; E 0.8; R 1.5; S 0.747; N 0.859; T 1.1; D 0.328; H 1.22; G 0.349; K 1.45; Q 1.17; F 1.56; M 1.68; V 1.36; I 1.72
K21: M 2.4; N 2.17; Q 2.24; R 2.49; A 2.41; S 2.43; H 2.16; F 1.98; P -0.644; V 1.89; I 1.99; W 2.19; D 1.89; G 2.12; Y 2.02; T 2.16; L 2.15; E 2.02
K20: D 1.48; Q 2.3; E 2.02; T 2.24; H 2.01; I 2.24; W 2.14; P -0.72; N 1.83; L 2.28; A 2.29; R 2.45; V 1.98; C 2.67; Y 2.13; M 2.34; G 1.54; S 2.08; F 2.07
K17: I 2.53; V 2.23; F 2.26; H 2.21; G 1.9; D 2.16; L 2.5; R 2.63; P -0.379; A 2.61; Q 2.57; W 2.43; Y 2.34; E 2.36; S 2.33; T 2.17; N 2.23; C 2.6; M 2.52
K14: R 2.62; N 2; D 1.56; W 2.4; P -0.126; G 1.53; E 1.95; Q 2.24; V 2.08; Y 2.17; H 2.06; A 2.62; S 2.04; M 2.34; T 1.89; F 2.14; L 2.33; I 2.21
L22: M 2.54; E 1.46; N 2.32; K 2.44; C 3.29; A 2.08; G 0.897; I 1.76; H 2.6; F 2.08; D -0.31
K13: T 2.12; N 2.27; V 2.3; I 2.49; P -0.412; H 2.07; Q 2.3; W 2.35; S 2.11; R 2.66; M 2.55; L 2.46; Y 2.32
A15: G 0.564; V 3.15; S 1.26; R 1.43; I 3.43; K 1.25; Y 3.04; F 3.33; T 1.85; C 3.07; P -0.232; E 0.415; D -0.785; Q 0.637; L 2.82; N 0.377; W 3.48; M 2.5; H 1.42
A19: S 0.85; V 1.47; F 2.84; Q -0.184; R -0.112; L 3.38; G 0.902; K -0.645; N -0.253; Y 2.32; P -0.671; H 0.465; W 1.23; M 2.79; E -0.425; T 0.316; I 2.44
A16: L 2.33; G 1.84; H 1.65; K 2.41; Q 2.16; T 1.87; S 1.87; F 2.28; V 2.47; M 2.45; D 0.642; N 1.06; Y 2.45; I 2.73; W 2.37; R 2.56
